Experimental data: the nanobody polyreactivity screen of Harvey et al. (2022)

test: yeast display, Sf9 membrane polyspecificity reagent, FACS + sequencing; frameworks hold sequencing errors
Outline: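 Galactose induction of a Saccharomyces cerevisiae BJ5465 synthetic nanobody display library ran 36–48 hours. The cells were then stained for 1 hour at 4 °C with 10% biotinylated, detergent-solubilized Sf9 membrane reagent, pulled down on streptavidin microbeads and FACS-sorted into low and high (top ~1%) gates on expression and reagent-binding fluorescence. Labels for polyreactivity follow the gate of origin.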

| Sequence | polyreactivity (PSR sort gate) |
| --- | --- |
| HVQLVESGGGLVQAGGSLRLSCAAWSIFYLNAMGWYRQAPGKERELVAAISSAGSTYYADSVKGRFTISRDNAKNTVYLQMNSLKPEDTAVYYCAAYWYDSPGVTEIWYDYWGQGTQVTVSS | low polyreactivity |
| HVQLVESGGGLVQAGGSLRVSCAASGSTFTRNAMGWYRQAPGKERELVAAITLRGGRTYYADSVKGRFTISRDNAKNTVYLQMNSLKPEDTAVYYCAAKPYTAYSYYEQRGRKYDYWGQGTQVTVSS | low polyreactivity |
| HVQLVESGGGLVQAGVSLRLSCAASGRLLEGYAMGWYRQAPGKERELVAAISFSTTTTYYADSVKGRFTISRDNAKNTVYLQMNSLKPEDTAVYYCAADSQQSDYDYWGQGTQVTVSS | high polyreactivity |
| HVQLVESGGGVVQAGGSLRLSCAASGIIFYYYTMGWYRHAPGKQRELVAAISTSGGRTYYADSVKGRFTISRDTAKNTVYLQMNSLKPEDTAVYYCNARSRHTTLDYWGQGTQVTVSS | high polyreactivity |
| HVQRVDSGAGLVQPRCSLRISCAASGNTFKQYAMGWYRQAPGKDRELVAAIRRSGSTYYADSVKGRFTISRDNAKYTVYLEMNSLKPEDPAVYYCNARIYRLYSTYSWTRYDYWGQGTQVTVSS | high polyreactivity |
| HVQRVESGGGLVQAGGSLRLSCAASGLIFVRYAMGWYRQAPGKERELVAAITTGGRTYYADSVKGRFTISRDNAKNTVYLQMNSLKPEDTAVYDCAASRSTYRASRPGTTFNYWGQGTQVTVSS | high polyreactivity |
| HVQVVESGGGLVQAGGSLRLSCAASGSTFPANAMGWYRQAPGKERELVAAISSSGGRTYYADSVKGRFTISRDNAQKTVYLQMNSLKPEDTAVYYCAAYGGGGYKYDYWGQGTQVSVSS | low polyreactivity |
| HVRLQESVGGLVQAGGSLRQSCAASGAISPYYDMGWYRLAPGKEREFVASIAHGGTTYYADSVKGRFTTSRDNAKNTVYLQMNSLKPEDTAVYYCAVAYDVWHSHIYRGQGTQVTVSS | high polyreactivity |
| IIQAGGSLRLSCAASGRTLSGYAMGWYRQAPGKERELIADITSGGSTYYADSVKGRFTISRDNAKNTVYLQMNSLKPEDTAVYYCAAERQIRSFWSSRTYEFGYWGQGTQVTVSS | low polyreactivity |
| KDQLVESGGGLVQAGGSLRLSCAASGLTFGGNAMGWYRQAPGKERELVAGISSSGNTNDADSVKGRFTISRDNAKNTVYLQLNSLKPEDTAVYYCAADENITYPVYDLYYWGQGTQVTVSS | low polyreactivity |
| KDQLVESGVGLVQAGCSLRLSCAASGRTLRRNAMGWYRQAPRKERELVAAISTGGGSTYYADSVKGRFTISRDNAKNTVYLQMNSLKPVDTAVYYCAAVYSQSTKRYELYYWGQGTQVTVSS | high polyreactivity |
| KFQLVESGGGLVQAGGRLRLSCAASGSTFWDYAMGWYRQATGKERQLVAVITSSGGGTYYADSVKGRFTISRDNSKNTVYLLMNSLKPEDTAVYYCAKKRPYSNGGYYWGQGSQVTVSS | high polyreactivity |
| KGHLEESGGGLVQAGGRLRLSCPASGNTFGDYAMGRYRQAPGKERELVAAISRSGGSTSYADSVKGRFTISRDNAKNTFYLQMNSLKPVDTAVYYCAAYWQRFGYDYWGQGTQVTVSS | low polyreactivity |
| KGQHVESGGGLVQAGGRLRLSCAASGSIFRYNAMGWDRQAPGKEREFVAAISWSGGRTFYADSVKGRFTISRDNAKNTVYLQMNSLKPEDTAVYYCAARSSRTTRQGYDYWGHGTQVTVSS | high polyreactivity |
| KSGGGLVQAGGSLRLSCAASGRIYVEYAMAWYKQAPGKERELVASISWSGDSTYYAESVKGRFTISRDNAKNTVYSQKKSLKPEATAVYYCNADGQVGYAVSYDYWGQGTQVTVSS | low polyreactivity |
| KVKLVESGGGLVQAGGSLRLSCAASGITSWYYAMGWYRQAPGKERELVAAITSDGSTYYADSVKGRFTISRDNAKNTVYLQMNSLKPEVTAVYYCAAERDYWIPDSYLVGMDFWGLGTQVTVSS | low polyreactivity |
| KVQLQESGGGLVQAGGSLRLSCAASCTISQEDWMGWYRQAPGKEREFVAAIGLGSNTNYADSLKGRFPISRDNAKNTVYLQMNSLKPEDTAVYYCAVSVWQYSDHVYRGQGTQVTVSS | low polyreactivity |
